Experimental data as given in publication PMC11009657 (Proceedings of the National Academy of Sciences of the …, 2024).

Tests used:
[1] = target: tau extracted from Alzheimer brain samples (human (endogenous in Alzheimer brain)); assay: sarkosyl extraction and Western blot
[2] = target: the molecule itself; assay: ThT fluorescence + TEM

Chain of tau extracted from Alzheimer brain samples (natural protein) (P10636 2-758): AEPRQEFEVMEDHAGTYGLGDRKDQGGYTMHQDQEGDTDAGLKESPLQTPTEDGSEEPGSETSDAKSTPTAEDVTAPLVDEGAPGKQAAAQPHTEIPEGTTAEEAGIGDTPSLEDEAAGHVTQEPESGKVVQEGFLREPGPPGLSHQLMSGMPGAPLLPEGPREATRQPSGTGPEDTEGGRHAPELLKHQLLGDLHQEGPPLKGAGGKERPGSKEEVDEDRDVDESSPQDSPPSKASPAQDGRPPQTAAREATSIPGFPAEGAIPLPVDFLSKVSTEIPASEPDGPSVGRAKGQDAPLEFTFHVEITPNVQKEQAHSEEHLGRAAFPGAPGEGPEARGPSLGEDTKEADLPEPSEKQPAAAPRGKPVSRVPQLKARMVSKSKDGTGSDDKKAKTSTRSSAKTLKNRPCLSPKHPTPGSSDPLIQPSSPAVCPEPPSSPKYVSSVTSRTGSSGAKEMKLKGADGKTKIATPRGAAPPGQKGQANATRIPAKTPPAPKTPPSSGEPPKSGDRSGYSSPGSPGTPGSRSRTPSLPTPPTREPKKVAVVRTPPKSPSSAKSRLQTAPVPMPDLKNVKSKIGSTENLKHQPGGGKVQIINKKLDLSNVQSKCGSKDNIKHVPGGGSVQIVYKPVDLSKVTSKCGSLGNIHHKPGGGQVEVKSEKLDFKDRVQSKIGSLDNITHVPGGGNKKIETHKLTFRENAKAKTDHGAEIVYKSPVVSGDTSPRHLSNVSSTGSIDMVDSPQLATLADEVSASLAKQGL

Row | Molecule | stoichiometry N [1] | binding result [2]
1 | tau extracted from Alzheimer brain samples (natural protein) | 6 | –
2 | DNIKHVPGGGSVQIVYKPV [jR2R3] | – | binds
